Experimental data: publication PMC3897919, “ERAD and protein import defects in a sec61 mutant lacking ER-lumenal loop 7” (BMC Cell Biology, 2013)

Biological target: T1, Sec61∆L7p (S. cerevisiae, UniProt P32915 1-480, amino acids 305–371 of wildtype Sec61p had been replaced by two amino acids …)
T1 construct: Sec61p, S. cerevisiae, lacking ER-lumenal loop 7 and the lumenal ends of TMDs 7 and 8; also called Sec61ΔL7p; Sec∆L7p; source: yeast KRY461 with sec61ΔL7pRS315 as sole copy of SEC61, in microsomes; solubilized in Triton-X100 or digitonin, or total protein reconstituted into proteoliposomes
T1 sequence (looked up): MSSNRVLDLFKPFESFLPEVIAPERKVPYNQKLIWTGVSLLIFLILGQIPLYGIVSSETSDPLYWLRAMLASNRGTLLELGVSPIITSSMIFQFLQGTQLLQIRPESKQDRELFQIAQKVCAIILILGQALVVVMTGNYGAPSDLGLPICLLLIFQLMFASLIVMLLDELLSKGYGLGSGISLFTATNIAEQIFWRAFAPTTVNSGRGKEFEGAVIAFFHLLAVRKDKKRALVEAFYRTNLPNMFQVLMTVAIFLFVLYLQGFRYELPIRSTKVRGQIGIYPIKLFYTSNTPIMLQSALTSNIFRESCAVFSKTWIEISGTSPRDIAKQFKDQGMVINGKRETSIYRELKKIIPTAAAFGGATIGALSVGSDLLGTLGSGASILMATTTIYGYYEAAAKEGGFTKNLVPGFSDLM
Assay: cross-linking; intact microsomes in B88, pH 7.9, treated with DSS for 20 min at 20°C, quenched with ammonium acetate; SDS-PAGE and immunoblotting with anti-Sec61p or anti-Sss1p antibodies
Conditions: partners not purified

B1: Sss1p (natural protein, UniProt P35179 1-80, looked up)
chain: MARASEKGEEKKQSNNQVEKLVEAPVEFVREGTQFLAKCKKPDLKEYTKIVKAVGIGFIAVGIIGYAIKLIHIPIRYVIV
notes: Sss1p, small subunit of the trimeric Sec61 complex, yeast; source: endogenous, yeast microsomes
Question: For B1, which “fold weaker crosslink than in wildtype membranes” value is on record?
Answer: ≥ 5 fold
